B1: AbhN (N-terminal DNA-binding domain of Abh, residues 1-54) (domain or fragment, Bacillus subtilis, UniProt P39758 1-54, looked up)
chain: MKSIGVVRKVDELGRIVMPIELRRALDIAIKDSIEFFVDGDKIILKKYKPHGVC
B2: SpoVTN (N-terminal DNA-binding domain of SpoVT, residues 1-55) (domain or fragment, Bacillus subtilis, UniProt P37554 1-55, looked up)
chain: MKATGIVRRIDDLGRVVIPKEIRRTLRIREGDPLEIFVDRDGEVILKKYSPISEL

How the values were obtained:
NMR solution structure = target: the molecule itself; assay: NMR solution structure
SEC = target: the molecule itself; assay: SEC

| Protein | binding result (NMR solution structure) | stoichiometry N (SEC) |
| --- | --- | --- |
| B1 | binds | – |
| B2 | – | 2 |
